In patent US20240425575A1:

B1: B1-G3 (VHH)
VHH: EVQVVESGGGLVQPGGSLRLSCVASMPSGISFSNRGMAWYRQAPGKQRELVAAIDSAGSTRYQDSVKGRFTISRDNAKNTVFLQMNSLKPEDTAVYYCNQPAFKAWGQGTQVTVSS
B2: B4-C11 (VHH)
VHH: QVQLVESGGGLVQAGGSLRLSCAASGSTFSNVVAGWYRQAPGKQRELVAGISNIGDTRYADSVKGRFTISRDNAKKAVYLQMNSLKPEDTAVYYCYAKYWARDYWGQGTQVTVSS
B3: B3-H7 (VHH)
VHH: EVQVVESGGGLVQAGGSLRLSCAASGSTAINSVAGWYRQAPGKQRELVAGISNIGDTRYADSVKGRFTISRDNAKKTVYLQMNSLKSEDTAVYYCYAKYWARDYWGQGTQVTVSS
B4: B1-H9 (VHH)
VHH: EVQLVESGGDLVQAGGSLRLSCAASGSTFSSTIAGWYRQAPGKQRELVAGISNIGDTRYADSVKGRFTISRDNAKKTVYLQMNSLKPEDTAVYYCYAKYWARDYWGQGTQVTVSS
B5: B1-G8 (VHH)
VHH: QVQLVESGGGLVQTGDSLRLSCVAPGISFSNRGMAWYRQAPGKQRELVAAIDSAGSQRYAGSVKDRFTISRDNAKNTVFLQMNSLKPEDTAVYYCNQPRFNLWGQGTQVTVSS
B6: B4-D3 (VHH)
VHH: QLQLVESGGGLVQPGGSLRLSCVASGASGISFSNRGMAWYRQAPGKQRELVAAIDSAGSPAYAGSVKGRFTISRDNAKNTVFLQMNSLKPEDTAVYYCNQPRFNLWGLGTQVTVSS
B7: B2-E2 (VHH)
VHH: EVQLVESGGGLVQPGESLRLSCVASGFPSGFTFSDYQMYWYRQAPGKERELVAIISNDGLRKTYADSVKGRFTISRDNAKNTMFLQMNSLKPEDTAVYVCNVRRANRDDWGQGTQVTVSS
B8: B2-F10 (VHH)
VHH: QVQLVESGGGLVQAGGSLRLSCGASGSAVSITLMAWYRQAPGKQRELVAGISNIGDTNYVDSVKDRFTISRINAKNAMYLQMNSLKPEDTAVYYCFAQDWGGHHYWGQGTQVTVSS
B9: B3-C11 (VHH)
VHH: EVQLVESGGGLVQAGGSLRLSCFVSGSTFSASLMGWYRQAPGKERELVAGISNIGNTVYADSAKGRFTISRDGAKNTVHLQMNALKPEDTAVYYCYATVPRAAWGQGTQVTVSS
B10: B2-A6 (VHH)
VHH: QLQLVESGGGLVQAGGSLRLSCFVSGSTFSASLMGWYRQAPGKERELVAGISNIGNTVYADSAKGRFTISRDGAKNTVHLQMNALKPEDTAVYYCYATVPRAAWGQGTQVTVSS

These binders were tested against BSA (UniProt P02769) (assay: ELISA, BSA coated (control), E. coli supernatant, anti-VHH-HRP).
Sequence of BSA (P02769 25-607 limits assumed): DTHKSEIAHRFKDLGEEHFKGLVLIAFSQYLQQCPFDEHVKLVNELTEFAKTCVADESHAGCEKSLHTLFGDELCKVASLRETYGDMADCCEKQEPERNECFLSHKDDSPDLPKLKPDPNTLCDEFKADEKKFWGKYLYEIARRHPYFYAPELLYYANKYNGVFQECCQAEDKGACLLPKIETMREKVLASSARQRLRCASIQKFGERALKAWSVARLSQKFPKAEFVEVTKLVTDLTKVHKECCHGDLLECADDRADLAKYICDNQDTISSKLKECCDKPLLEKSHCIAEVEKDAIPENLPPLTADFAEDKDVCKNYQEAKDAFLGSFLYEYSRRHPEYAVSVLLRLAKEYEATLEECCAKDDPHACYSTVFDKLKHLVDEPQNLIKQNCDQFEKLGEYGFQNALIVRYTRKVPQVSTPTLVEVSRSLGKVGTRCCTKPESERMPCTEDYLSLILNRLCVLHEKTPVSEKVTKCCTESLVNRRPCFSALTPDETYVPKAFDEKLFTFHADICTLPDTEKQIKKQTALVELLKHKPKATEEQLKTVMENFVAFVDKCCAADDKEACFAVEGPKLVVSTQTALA
B1 gave an OD Value Obtained after Binding to BSA of 0.067 OD 450 nm. Work on B2 yielded an OD Value Obtained after Binding to BSA of 0.071 OD 450 nm. B3 was tested, and the OD Value Obtained after Binding to BSA was 0.056 OD 450 nm. B4 showed an OD Value Obtained after Binding to BSA of 0.058 OD 450 nm. For B5, the OD Value Obtained after Binding to BSA was 0.065 OD 450 nm. B6 gave an OD Value Obtained after Binding to BSA of 0.059 OD 450 nm. With B7 the OD Value Obtained after Binding to BSA was 0.07 OD 450 nm. B8 showed an OD Value Obtained after Binding to BSA of 0.063 OD 450 nm. In the case of B9, the OD Value Obtained after Binding to BSA is reported as 0.071 OD 450 nm. For B10, the OD Value Obtained after Binding to BSA was 0.049 OD 450 nm.
